# Measurements as given in patent US10054602B2, “Conjugate of estradiol and applications thereof” (CHRIST UNIVERSITY, priority 2016, dated 2018).
# “Also recorded” adds a separate entry of the source. Where two headings read alike, the source gives them in different places.
# Columns and labels:
# [1] = optical properties of dye (absorption, emission, quantum yield); assay type: physicochemical; details: for absorption maxima (wavelength): solvent not stated; for Quantum yield φ: ICG as standard
# Description: The increased fluorescence quantum yield of the hydrophilic derivatives reduces the risk of the forming fluorescence-quenched aggregation. […] Thus the conjugate can be used for tagging estradiol because of its ability to form monoderivatized activated precursors as it has a carboxylic group which can be tailored to attach to functional groups of biomoloecules like estradiol.
# The excitation and emission peaks for the conjugate are recorded in the NIR region as 757 nm and 788 nm respectively. The potential of the compound in the application as contrast agents for fluorescence imaging modalities, where the fluorescence emission of the dye is expected to be detectable in high sensitivity above low tissue background is analysed on the breast cancer cell lines MCF-7/MDA-MB-231.
# [2] = tissue kinetics in tumor tissue after injecting; assay type: in vivo; details: for half-life: in tumor tissue, read-out: tissue-efflux half-life
# MCF-7 [ER+] cells = experiment: NIRF staining / confocal laser microscopy of MCF-7 cells; assay type: cell-based, Human; details: for cellular localisation / binding of fluorescence: MCF-7 (ER+), confocal microscopy, 1 μM
# Description: (§1) Human breast cancer cell lines MCF-7 [ER+] and MDA-MB-231 [ER-] are obtained from National Centre for Cell science (NCCS (Pune)). The cells are cultured, revived and the experiments are carried out at Advanced Centre for Treatment, Research and Education in Cancer (ACTREC) of Tata Memorial Centre (Mumbai).
# (§2) MCF-7 and MDA-MB-231 cells are cultured in DMEM/F12 medium without phenol red (ACTREC, Mumbai) supplemented with 10% fetal bovine serum. Cells in suspension (50 μl) are added to each well of a 96-well culture plate for a final concentration of 1×10^3 Cells/well and incubated for 24 h at 37° C. in carbon dioxide chamber.
# The NIRFDC with initial concentration of 24.5 mg/2 ml of DMSO solution is added to each well, and the cultures further incubated for 2 h. The cells are treated at different concentration levels of 1:10, 1:50, 1:100, 1:500 and 1:1000 of DMSO. The cells were then re-suspended in 100 μl of 0.04N HCl/isopropanol solution.
# Cell smears are prepared by rolling the swab across the top half of the well of a microscope slide. The opposite side of the swab is rolled over the bottom half of the well. There after the slide is allowed to air dry completely. Then the slide is fixed in chilled (2° to 8° C.) acetone for 10 minutes, which is further removed and allowed to air dry completely. Slides are stored at ≤−20° C. with desiccant. On completion, the cells are re-suspend to at least 400 μL in phosphate buffered saline and 200 μL is applied to each slide by cento-centrifugation at 800 rpm for 4 minutes [Br. J Cancer. 58:77-80, (1988)]. This procedure is repeated for fixing both the cell lines.
# The smears are stained with the conjugate at different dilutions of 1:10, 1:50, 1:100, 1:500 and 1:1000 and incubated for an hour at about 25° C. Thereafter these cells are given 3 washes of phosphate buffered saline, mounted with DPX (Distrene Plasticyser Xylene) covered and imaged using the Olympus Confocal microscope.
# MCF-7 cells maintained at 37° C. in a 5% CO2 atmosphere in phenol red-free minimal essential medium (MEM) containing 10% charcoal stripped calf serum and penicillin, streptomycin, glutamine, are incubated for 4 days in 24 multiwells (NUNC). After 4 days of culture, the medium is removed and the cells are incubated for 1 hour at 37° C. with […] at concentrations ranging from 0.3 nM to 1 nM. Medium is removed and the cells are washed twice with phosphate buffer saline (PBS). 250 μl of absolute ethanol is added to each well (exposition during 20 min).
# The in-vitro studies are carried out using the inverted lens Olympus Fluo-View Confocal Microscope. The sample is excited at 754 nm and the emissions are observed using PMT having relatively higher quantum efficiency in the NIR-region.
# (§3) These cells retained several characteristics of differentiated mammary epithelium including ability to process estradiol via Nuclear and cytoplasmic estrogen receptors and the capability of forming domes. MBA-MB-231 breast cancer cell lines are used as the control. […] The nuclear staining is pivotal towards early detection of cancer as 80% of the breast cancer reported are ER+ and could be detected by this characteristic feature. […]
# In-vitro fluorescence signal of malignant cells bearing estrogen receptor positive with the control (cells without intracellular estrogen receptors) are studied. Fluorescence intensity generated by the NIRF Dye-Conjugate in particular to the nucleus and the entire cell is plotted as shown in the (FIG. 6 A, B). […]
# [3] = ICG as standard; cited from earlier work
# MCF-7 cells = experiment: inhibition of nuclear entry of estrogen conjugated dye in MCF-7 cells; assay type: cell-based, Human
# Description: The estrogenic activity is examined using human mammary carcinoma MCF-7 cells. The cells are cultured with various concentrations of Diethylstilbestrol (DES) and estrogen conjugated dye for more than 5 days and then the cells were counted.
# A very clear distinction on non-specific binding is observed and the binding is only seen in the cytoplasm.
# plasma protein binding = assay type: in vitro ADME
# cell lines = experiment: toxic effect on the cell lines; assay type: cell-based; details: glucosammonium ion in place of sodium ion
# [4] = partition coefficient studies; assay type: physicochemical
# MDA-MB-231 [ER-] cells = experiment: NIRF staining / confocal laser microscopy of MDA-MB-231 control cells; assay type: cell-based, Human; details: 1 μM
# Description: as §1
# as §2, with “chamber. […]” for “chamber.”
# as §3, with “domes.” for “domes. MBA-MB-231 breast cancer cell lines are used as the control.”
# The cell lines are not controlled by the estrogen and lack the estrogen activity in the nucleus. After additional incubation under conditions permitting membrane traffic and thus endocytosis, fast and thorough internalization of ligand-receptor complexes into an intracellular compartment could be detected. […]
# [5] = molecular target: T1, Estrogen receptor (ER) in human breast cancer tissues (Homo sapiens, UniProt P03372); experiment: ER staining of breast carcinoma tissue sections; details: Non-invasive Ductal, Lobular, Adenocarcinoma and Medullary Carcinoma
# T1 construct: from tissue; host or cells: human breast carcinoma tumor tissue, formalin-fixed paraffin sections
# T1 sequence (P03372 whole entry): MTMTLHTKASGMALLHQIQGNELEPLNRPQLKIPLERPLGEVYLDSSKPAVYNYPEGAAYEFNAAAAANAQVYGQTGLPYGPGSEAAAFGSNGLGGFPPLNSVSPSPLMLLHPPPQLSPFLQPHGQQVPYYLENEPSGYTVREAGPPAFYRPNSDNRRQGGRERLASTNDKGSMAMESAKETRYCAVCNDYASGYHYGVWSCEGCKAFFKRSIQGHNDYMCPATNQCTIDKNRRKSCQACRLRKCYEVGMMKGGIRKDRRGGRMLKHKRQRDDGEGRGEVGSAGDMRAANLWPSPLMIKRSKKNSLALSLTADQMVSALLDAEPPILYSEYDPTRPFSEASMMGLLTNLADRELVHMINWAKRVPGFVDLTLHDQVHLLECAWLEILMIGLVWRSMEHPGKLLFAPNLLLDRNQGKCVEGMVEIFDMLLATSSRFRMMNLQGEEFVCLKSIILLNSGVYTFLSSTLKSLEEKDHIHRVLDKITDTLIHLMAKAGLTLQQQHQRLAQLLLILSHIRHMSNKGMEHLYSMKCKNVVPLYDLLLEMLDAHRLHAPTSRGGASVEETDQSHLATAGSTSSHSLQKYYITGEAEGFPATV
# Description: The avidin-biotin-peroxidase complex method is used for the paraffin sections fixed in cold buffered formalin and the results are compared with the ER content in the respective tumor tissue. The specific staining for ER is located exclusively in the nuclei of cancer cells in paraffin sections.
# The tumor pieces are fixed in buffered formalin (0.1 M sodium phosphate, pH 7.4/10% formalin) for 24 hr at […]. After being rinsed overnight at […]. in 0.1 M sodium phosphate (pH 7.4), they are dehydrated with graded ethanol and embedded in paraffin. Paraffin sections (4 μm) are cut, deparaffinized with xylene, and rinsed thoroughly with absolute ethanol. Then they are soaked in absolute methanol containing 0.3% H2O2 for 30 min at 25° C. to decrease the endogenous peroxidase activity. The sections were washed three times with 50 mM Tris-HCl, pH 7.6/137 mM NaCl (Tris/NaCl) and were incubated with serum (10% in Tris/NaCl) for 30 min at 25° C. so as to reduce the nonspecific staining. Excess serum is removed by blotting. I˜g/ml) or with normal rat IgG (10 A·g/ml) for 30 min at 37° C. After being washed with Tris/NaCl. […]
compound,measurement,setting,value
"CC1(C)C(/C=C/C=C/C=C/C=C2\N(CCCCS(=O)(=O)O)c3ccc4ccccc4c3C2(C)C)=[N+](CCCCS(=O)(=O)[O-])c2ccc3ccccc3c21 [ICG, Indocyanine Green, reference compound]",absorption maxima (wavelength),[1],780
same,half-life,[2]; other: injection (type not specified),< 0.167 h
same,cellular localisation / binding of fluorescence,MCF-7 [ER+] cells,only stains the cells without entering the nucleus of the cell
same,quantum yield φ of the standard,[3],0.13
CC/C(=C(\c1ccccc1)c1ccc(OCCN(C)C)cc1)c1ccccc1 [Tamoxifen],blocking of entry of the estradiol conjugate into the nucleus,MCF-7 cells,inhibited the entry of the estradiol into the nucleus; also recorded: blocking operation of the estrogen conjugated dye entering the nucleus
CC1(C)C(/C=C/C=C/C=C/C=C2\N(CCCCS(=O)(=O)O)c3ccc(C(=O)Oc4ccc5c(c4)CCC4C5CC[C@@]5(C)C4CC[C@@H]5O)cc3C2(C)C)=[N+](CCCCS(=O)(=O)[O-])c2ccc(C(=O)Oc3ccc4c(c3)CCC3C4CC[C@@]4(C)C3CC[C@@H]4O)cc21 (stereo partly drawn) [conjugate],fraction unbound,plasma protein binding,> 0.5
same,toxic effect on the cell lines,cell lines,reduce the toxic effect on the cell lines
same,Stokes' shift of fluorescence maximum,[1],38 nm
same,Strokes' shift,[1]; DMSO,30
same,λmax absorption,[1]; DMSO,757 nm
same,λmax emission,[1]; DMSO,787 nm
same,Quantum yield φ,[1]; DMSO,0.114
same,emission peak,[1]; NIR region,788 nm
same,excitation peak,[1]; NIR region,757 nm
same,Strokes' shift,[1]; PBS,33
same,λmax absorption,[1]; PBS,755 nm
same,λmax emission,[1]; PBS,788 nm
same,Quantum yield φ,[1]; PBS,0.110
same,enhancement of fluorescence quantum yields with respect to ICG,[1]; physiological environment,7-15%
same,absorption maxima (wavelength),[1],757
same,initial tissue absorption coefficient compared to ICG,[2]; in vivo,two-fold higher
same,half-life,[2]; other: injection (kind of injection not stated),1.22 h
same,tumor-to-tissue concentration gradient,[2]; up to one hour after injecting,elevated tumor-to-tissue concentration gradient for up to one hour after injecting
same,partition coefficient,[4],less than 0.005
same,signal intensity of MCF-7 cells compared to MDA-MB-231,MCF-7 [ER+] cells; 24 h,~2.4 fold
same,cellular localisation / binding of fluorescence,MCF-7 [ER+] cells,specific high affinity binding sites of estrogen molecule on to the nucleus and membrane
same,cellular localisation / binding of fluorescence,MCF-7 [ER+] cells; listed as NIRFD-conjugate,majority of the receptor-associated fluorescence co-localized at the Nucleus and a minority in the plasma membrane
same,cellular localisation / binding of fluorescence,MCF-7 [ER+] cells; listed as NIRFDC,very clear localization of conjugated dye in the nucleus; also recorded: significant amount of binding is seen in the nucleus
same,cellular localisation / binding of fluorescence,MDA-MB-231 [ER-] cells,only the plasma membrane staining
same,cellular localisation / binding of fluorescence,MDA-MB-231 [ER-] cells; listed as NIRFDC,poor binding of conjugate into the nucleus
same,ER staining of carcinoma tissue,[5],ER staining which are confined to the nuclei
CC/C(=C(/CC)c1ccc(O)cc1)c1ccc(O)cc1 [Diethylstilbestrol],blocking of entry of the estradiol conjugate into the nucleus,MCF-7 cells,inhibited the entry of the estradiol into the nucleus
same,blocking of entry of the estradiol conjugate into the nucleus,MCF-7 cells; listed as DES,blocking operation of the estrogen conjugated dye from entering the nucleus
